According to paper PMC8329185:

How the values were obtained:
GFP-TRAP1 = test: bead halo assay
GFP-NELF = test: bead halo assay
GFP-RPS6KA3 = test: bead halo assay
GFP-SRSF7 = test: bead halo assay
GFP-CPSF6 = test: bead halo assay
SNUPN (Homo sapiens) = SNUPN (Homo sapiens) (UniProt O95149); conditions: cited from earlier work
EIF5A (Homo sapiens) = EIF5A (Homo sapiens) (UniProt P63241); conditions: cited from earlier work
Chain of EIF5A (Homo sapiens) (P63241 2-154): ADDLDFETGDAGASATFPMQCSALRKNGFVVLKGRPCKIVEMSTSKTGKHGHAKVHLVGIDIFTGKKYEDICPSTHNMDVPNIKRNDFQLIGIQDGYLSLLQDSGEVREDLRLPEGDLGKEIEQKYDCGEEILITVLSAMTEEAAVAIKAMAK

Chain of CRM1 (O14980 whole entry): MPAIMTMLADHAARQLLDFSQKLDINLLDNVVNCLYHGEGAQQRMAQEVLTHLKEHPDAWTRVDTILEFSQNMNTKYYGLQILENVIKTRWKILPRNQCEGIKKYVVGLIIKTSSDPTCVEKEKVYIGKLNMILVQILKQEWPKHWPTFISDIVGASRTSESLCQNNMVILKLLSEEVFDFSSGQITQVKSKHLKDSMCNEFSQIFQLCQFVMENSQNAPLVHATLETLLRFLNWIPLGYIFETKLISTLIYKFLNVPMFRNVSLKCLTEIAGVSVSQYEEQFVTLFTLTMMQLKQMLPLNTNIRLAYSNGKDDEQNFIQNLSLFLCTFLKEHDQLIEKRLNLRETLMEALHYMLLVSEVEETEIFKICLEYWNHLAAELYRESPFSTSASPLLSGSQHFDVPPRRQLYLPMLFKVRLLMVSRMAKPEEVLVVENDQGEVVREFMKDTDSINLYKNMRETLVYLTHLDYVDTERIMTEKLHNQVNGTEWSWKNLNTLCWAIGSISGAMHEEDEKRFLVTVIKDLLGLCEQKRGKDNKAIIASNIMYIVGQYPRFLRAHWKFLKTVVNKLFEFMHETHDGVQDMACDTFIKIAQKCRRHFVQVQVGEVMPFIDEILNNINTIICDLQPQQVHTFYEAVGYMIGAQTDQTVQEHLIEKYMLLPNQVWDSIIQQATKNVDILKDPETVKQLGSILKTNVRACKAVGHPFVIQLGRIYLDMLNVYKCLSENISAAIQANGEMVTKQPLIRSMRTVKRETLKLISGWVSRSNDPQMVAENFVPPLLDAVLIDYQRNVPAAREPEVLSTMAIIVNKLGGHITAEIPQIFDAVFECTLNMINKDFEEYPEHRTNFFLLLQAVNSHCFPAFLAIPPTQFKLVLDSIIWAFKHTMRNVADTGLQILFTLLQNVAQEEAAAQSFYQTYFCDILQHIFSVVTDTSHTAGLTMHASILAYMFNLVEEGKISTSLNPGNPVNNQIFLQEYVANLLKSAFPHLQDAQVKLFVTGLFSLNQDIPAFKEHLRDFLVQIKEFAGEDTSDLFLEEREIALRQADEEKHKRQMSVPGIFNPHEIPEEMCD
Chain of Xpo4 (Q9C0E2 whole entry): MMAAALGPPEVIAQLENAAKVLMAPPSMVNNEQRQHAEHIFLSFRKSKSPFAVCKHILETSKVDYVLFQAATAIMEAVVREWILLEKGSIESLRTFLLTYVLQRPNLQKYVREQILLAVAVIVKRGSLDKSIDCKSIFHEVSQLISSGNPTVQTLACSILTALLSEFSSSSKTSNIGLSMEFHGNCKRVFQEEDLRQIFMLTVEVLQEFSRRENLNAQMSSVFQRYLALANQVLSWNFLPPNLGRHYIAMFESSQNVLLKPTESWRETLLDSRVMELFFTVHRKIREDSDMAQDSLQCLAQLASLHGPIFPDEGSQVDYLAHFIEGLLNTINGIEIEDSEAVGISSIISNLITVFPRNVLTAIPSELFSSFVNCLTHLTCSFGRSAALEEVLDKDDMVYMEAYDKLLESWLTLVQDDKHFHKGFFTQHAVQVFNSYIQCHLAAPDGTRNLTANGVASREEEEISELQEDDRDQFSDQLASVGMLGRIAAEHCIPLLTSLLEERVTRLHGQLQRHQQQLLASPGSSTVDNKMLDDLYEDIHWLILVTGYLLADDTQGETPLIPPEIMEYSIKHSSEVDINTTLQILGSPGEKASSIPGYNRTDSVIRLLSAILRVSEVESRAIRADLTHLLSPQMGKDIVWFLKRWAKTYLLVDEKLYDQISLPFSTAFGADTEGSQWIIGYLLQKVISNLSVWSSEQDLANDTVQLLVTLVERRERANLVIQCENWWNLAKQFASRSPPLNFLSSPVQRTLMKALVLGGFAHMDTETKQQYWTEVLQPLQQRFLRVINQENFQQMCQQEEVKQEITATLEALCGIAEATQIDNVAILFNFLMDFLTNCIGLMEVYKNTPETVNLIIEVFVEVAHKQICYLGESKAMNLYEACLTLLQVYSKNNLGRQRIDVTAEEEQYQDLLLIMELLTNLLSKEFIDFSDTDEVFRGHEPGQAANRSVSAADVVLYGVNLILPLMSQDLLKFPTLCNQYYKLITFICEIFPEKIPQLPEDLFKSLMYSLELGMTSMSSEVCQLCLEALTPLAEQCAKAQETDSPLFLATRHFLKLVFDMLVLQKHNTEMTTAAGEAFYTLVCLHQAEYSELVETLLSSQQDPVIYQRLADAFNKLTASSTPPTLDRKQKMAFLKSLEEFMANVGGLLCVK
Chain of SNUPN (Homo sapiens) (O95149 whole entry): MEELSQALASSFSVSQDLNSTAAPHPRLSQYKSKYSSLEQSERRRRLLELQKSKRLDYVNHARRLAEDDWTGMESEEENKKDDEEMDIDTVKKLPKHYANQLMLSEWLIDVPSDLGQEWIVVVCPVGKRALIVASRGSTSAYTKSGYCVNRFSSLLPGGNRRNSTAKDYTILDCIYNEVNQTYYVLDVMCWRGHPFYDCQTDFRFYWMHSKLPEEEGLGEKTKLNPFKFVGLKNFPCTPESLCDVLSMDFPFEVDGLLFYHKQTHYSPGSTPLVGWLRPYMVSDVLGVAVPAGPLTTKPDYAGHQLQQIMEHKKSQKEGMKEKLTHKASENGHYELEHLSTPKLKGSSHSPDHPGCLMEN

Substance	response (GFP-TRAP1) [GFP/mCherry]	response (GFP-NELF) [GFP/mCherry]	response (GFP-RPS6KA3) [GFP/mCherry]	response (GFP-SRSF7) [GFP/mCherry]	response (GFP-CPSF6) [GFP/mCherry]	Kd (SNUPN (Homo sapiens)) [nM]	Kd (EIF5A (Homo sapiens)) [nM]
GST-mCherry-TrnSR (WT) (from UniProt Q9Y5L0) E398R	1.11	1.14	0.09	0.94	0.15	–	–
GST-mCherry-TrnSR (WT) (from UniProt Q9Y5L0) D409R	1.35	2.89	0.13	0.67	0.46	–	–
GST-mCherry-TrnSR (WT) (from UniProt Q9Y5L0) R671E	1.16	0.5	0.37	0.26	0.15	–	–
CRM1 (from UniProt O14980)	–	–	–	–	–	10	–
Xpo4 (from UniProt Q9C0E2)	–	–	–	–	–	–	2
